Experiment: yeast display, Sf9 membrane polyspecificity reagent, FACS + sequencing; frameworks hold sequencing errors
Outline: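 Sorting gates, low and high (top ~1%), were placed on anti-HA fluorescence to track expression and on streptavidin fluorescence to track reagent binding. A clone's polyreactivity label is taken from the gate it came out of. The reagent was 10% biotinylated, detergent-solubilized Sf9 membrane, applied for 1 hour at 4 °C to galactose-induced yeast display cells.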

| Sequence | polyreactivity (PSR sort gate) |
| --- | --- |
| QVQLVESGGGLVQAGGSLRLSCAASGSTFSIYAMGWYRQAPGKERELVAAISFSDDSTYYADSVKGRFTISRDNAKNTVYLQMNSLKPEDTAVYYCAAEGYWGQPFDYDGALEYWGQGTQVTVSS | high polyreactivity |
| QVQLVESGGGLVQAGGSLRLSCAASGSTFAFYAMGWYRQAPGKERELVAAISFSGGSTYYADSVKGRFTISRDNAKNTVYLQMNSLKPEDTAVYYCNARYPNTRKYDYWGQGTQVTVSS | high polyreactivity |
| QVQLVESGGCLVQARGTLRLSCASSGRTIYLYAMPWYRQAPAKERELVAAITKSGGSTYYADSVKGRFTISRDIAMNTVYVQMNSLKPQDTAFYYCYKDLSSTNLDYWGQGTQFTVSS | low polyreactivity |
| QVQLVESGGGVVQAGGSLRLICAASGLTFDKYTMGRYRQAPGKERELVARISTSGSRTYYADSVKGRFTISRDNAKNTVYLQMNSLIPEDTEVYYCNKDGWIRRRRGYDYWGQGTQVTVSS | high polyreactivity |
| QVQLVESGGGLVQAGGSLRLSCASSGITFDYYAMGWYRQAPGKERELVASISSDSSTYYADSVKGRFTISRDNAKNTVYLQMNSLKPEDTAVYYCNAGDTTFPFYYWGQGTQVTVSS | low polyreactivity |
| QVQLVESGGGLVQAGGSLRLSCAASGFIFEWYAMGWYRQAPGKERELVAGIDSGSTYADSVKGRFTISRDNAKNTVYLQMNSLKPEDTAVYYCAKRSDAVIQRTYRYDYWGQGTQVTVSS | low polyreactivity |
| QVQLVESGGGLVQAGGSLRLSCAATGFTYYRNARGSYRQAPGKERELVAAISGSGGSTYYADSVKGRFTISRDNATNTVYLQMNSLKPEDTAVYYCAAAAGSYNSGNGYWGLGTQVTVSS | high polyreactivity |
| QVQLVESGGGLVQAGGSLRLSCAASGRIFIRDARGWYRPAPGKERELVAALTRGGSTYYADSVKGRFTISRDTAKNTVYLQMNSLKPEDTAVYYCAARVGYPYYYWGQGTQVTVSS | high polyreactivity |
| QVQLVESGGGLVQAGGSLRLSCAASGFIFYYNAMGWYRHAPGKERELDAGISRSAGSTYYADSVKGRFTISRDNAKNSVYLHMNSLTPEDTAVYYCAARYLSYITGTSYYWGQVTQVTVSS | low polyreactivity |
| QVQLEESGGGLVQAGGSLRLSCAASGGIFGWYTMGWNRQAPGKERELVAAINFSGSRTYYADSVKGRFTISRHNAKNTVYLQMNSLKPEDTAVYYCNAVYHQFRVEYWGQGTQVTVSS | high polyreactivity |
| QVQLVESGGGLVQAGGSLRLSCAASGSTFEYYAMVWYRQAAGKERELVDRINWSGGSTYYADSVKGRFTISRDNAKNTVYLQMNSLKPEDTAVYYCNRKLTRFTCFPLAYWGQGTQVTVSS | low polyreactivity |
| QVQLVESGGGLVQAGGSLRLSCAASGRIFHYNAMGWYRQAPGKERELVAAISTGGSTNYADSVKGRFTISRDNAKNTFYLQMYSLKPEDTAVYYCAADHPVTYPTSKFDFWGQGTQVTVSS | low polyreactivity |
| QVQLVESGGGLVQAGASLRLSCAASGSISKSYAMGWYRQAPGKERELVAAISSRGGSTYADSVKGRFTISRDNAKNTVYLQMNSLKPEDTAVYYCAATNYGTFWGGQSERYDYWGQGTQVTVSS | low polyreactivity |
| QVQLVESGGGLVQAGGSLRLSCAASGSIFRYNTMGWYRPAPGKERELVATITRRGGSTYYADSVKGRFTISRDNAKNTVYLQMNSLKPEDTAVYYCIADNFGGPYNYWGQGTQVTVSS | low polyreactivity |
| QVQLVESGGGLVQAGGSLRLSCAASGFIFGTNTMGWYRQEPGKERELVAAITSVGSTNYADSVKGRFTISRDNAKNTVYLLMNSLKPEDTAVYYCPATLYYQYGGDYWGQGTQVTVSS | low polyreactivity |
| QVQLQESGGGLVQAGGSLRLSCAAIGYISYFVGMGWYRQQPGKEREFVASIADVSNTYYADSVKGRFTISRDNAKNTVYLQRNSLKPEDTAVYYCAVVDSWTYRFDYWGQGTQVTVSS | high polyreactivity |
| QVQLVESGGGLVQAGGSLRISCAASGIIFGEYAMGWYRQAPGKERELVAAISQSGGTYYADSVKGRFTISRDNAKNTVYLQMNSLKPEDTAVYYCNADYWAYISRVRYDYWGQGTQVTVSS | low polyreactivity |

From the nanobody polyreactivity screen of Harvey et al. (2022)
